From US20250262210A1 (TRUSTEES OF COLUMBIA UNIVERSITY IN THE CITY OF NEW YORK, published 2025)

Columns and labels:
Experiment in all cases: IP/MS, LZTR1 R810W-FLAG, U87
RTTN = RTTN (human, UniProt Q86VV8 1-2226, limits assumed)
Method in brief: (§1)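 Read-out: spectral counts from LC-MS/MS (Orbitrap Fusion) after MaxQuant identification. Variable modifications were Met oxidation, protein N-terminal acetylation and N/Q deamidation.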

EPG5 = EPG5 (human, UniProt Q9HCE0 1-2579, limits assumed)
Method in brief: as §1

HERC2 = HERC2 (human, UniProt O95714 1-4834)
Method in brief: as §1

BUB1 = BUB1 (human, UniProt O43683 1-1085, limits assumed)
Method in brief: as §1

ASXL1 = ASXL1 (human, UniProt Q8IXJ9 1-1541, limits assumed)
Method in brief: as §1

ANKRD52 = target: T1, ANKRD52 (human, UniProt Q8NB46 1-1076)
T1 sequence (looked up): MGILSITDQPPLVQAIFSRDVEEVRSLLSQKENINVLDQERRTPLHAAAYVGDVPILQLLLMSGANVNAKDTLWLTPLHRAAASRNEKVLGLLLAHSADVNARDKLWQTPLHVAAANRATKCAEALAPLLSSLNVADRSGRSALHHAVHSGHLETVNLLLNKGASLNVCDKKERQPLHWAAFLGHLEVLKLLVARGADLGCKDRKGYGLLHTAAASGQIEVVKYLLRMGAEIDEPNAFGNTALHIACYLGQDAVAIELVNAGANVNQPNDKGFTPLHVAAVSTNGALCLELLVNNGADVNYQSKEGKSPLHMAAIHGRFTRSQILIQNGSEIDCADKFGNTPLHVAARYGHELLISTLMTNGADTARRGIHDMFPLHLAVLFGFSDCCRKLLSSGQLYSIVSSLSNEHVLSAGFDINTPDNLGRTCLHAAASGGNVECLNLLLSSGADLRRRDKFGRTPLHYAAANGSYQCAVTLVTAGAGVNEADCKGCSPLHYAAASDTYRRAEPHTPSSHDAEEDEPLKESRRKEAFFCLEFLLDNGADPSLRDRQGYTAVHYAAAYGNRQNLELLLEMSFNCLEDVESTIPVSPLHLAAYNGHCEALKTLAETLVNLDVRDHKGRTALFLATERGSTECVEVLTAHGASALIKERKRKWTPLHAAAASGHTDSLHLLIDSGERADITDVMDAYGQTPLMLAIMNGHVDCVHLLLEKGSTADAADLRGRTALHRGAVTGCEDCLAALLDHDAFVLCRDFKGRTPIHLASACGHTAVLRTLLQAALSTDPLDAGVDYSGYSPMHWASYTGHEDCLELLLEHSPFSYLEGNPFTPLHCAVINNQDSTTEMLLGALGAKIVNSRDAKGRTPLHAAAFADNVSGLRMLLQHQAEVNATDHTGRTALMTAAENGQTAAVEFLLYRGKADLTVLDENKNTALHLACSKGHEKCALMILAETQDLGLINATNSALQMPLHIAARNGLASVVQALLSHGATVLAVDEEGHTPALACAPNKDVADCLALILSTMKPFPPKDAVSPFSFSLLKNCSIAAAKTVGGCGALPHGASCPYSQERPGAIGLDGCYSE
Method in brief: as §1

CDC42BPB = CDC42BPB (human, UniProt Q9Y5S2 1-1711)
Method in brief: as §1

SPG11 = SPG11 (human, UniProt Q96JI7 1-2443, limits assumed)
Method in brief: as §1

Measured: binding result

Sequence of EPG5 (Q9HCE0 whole entry): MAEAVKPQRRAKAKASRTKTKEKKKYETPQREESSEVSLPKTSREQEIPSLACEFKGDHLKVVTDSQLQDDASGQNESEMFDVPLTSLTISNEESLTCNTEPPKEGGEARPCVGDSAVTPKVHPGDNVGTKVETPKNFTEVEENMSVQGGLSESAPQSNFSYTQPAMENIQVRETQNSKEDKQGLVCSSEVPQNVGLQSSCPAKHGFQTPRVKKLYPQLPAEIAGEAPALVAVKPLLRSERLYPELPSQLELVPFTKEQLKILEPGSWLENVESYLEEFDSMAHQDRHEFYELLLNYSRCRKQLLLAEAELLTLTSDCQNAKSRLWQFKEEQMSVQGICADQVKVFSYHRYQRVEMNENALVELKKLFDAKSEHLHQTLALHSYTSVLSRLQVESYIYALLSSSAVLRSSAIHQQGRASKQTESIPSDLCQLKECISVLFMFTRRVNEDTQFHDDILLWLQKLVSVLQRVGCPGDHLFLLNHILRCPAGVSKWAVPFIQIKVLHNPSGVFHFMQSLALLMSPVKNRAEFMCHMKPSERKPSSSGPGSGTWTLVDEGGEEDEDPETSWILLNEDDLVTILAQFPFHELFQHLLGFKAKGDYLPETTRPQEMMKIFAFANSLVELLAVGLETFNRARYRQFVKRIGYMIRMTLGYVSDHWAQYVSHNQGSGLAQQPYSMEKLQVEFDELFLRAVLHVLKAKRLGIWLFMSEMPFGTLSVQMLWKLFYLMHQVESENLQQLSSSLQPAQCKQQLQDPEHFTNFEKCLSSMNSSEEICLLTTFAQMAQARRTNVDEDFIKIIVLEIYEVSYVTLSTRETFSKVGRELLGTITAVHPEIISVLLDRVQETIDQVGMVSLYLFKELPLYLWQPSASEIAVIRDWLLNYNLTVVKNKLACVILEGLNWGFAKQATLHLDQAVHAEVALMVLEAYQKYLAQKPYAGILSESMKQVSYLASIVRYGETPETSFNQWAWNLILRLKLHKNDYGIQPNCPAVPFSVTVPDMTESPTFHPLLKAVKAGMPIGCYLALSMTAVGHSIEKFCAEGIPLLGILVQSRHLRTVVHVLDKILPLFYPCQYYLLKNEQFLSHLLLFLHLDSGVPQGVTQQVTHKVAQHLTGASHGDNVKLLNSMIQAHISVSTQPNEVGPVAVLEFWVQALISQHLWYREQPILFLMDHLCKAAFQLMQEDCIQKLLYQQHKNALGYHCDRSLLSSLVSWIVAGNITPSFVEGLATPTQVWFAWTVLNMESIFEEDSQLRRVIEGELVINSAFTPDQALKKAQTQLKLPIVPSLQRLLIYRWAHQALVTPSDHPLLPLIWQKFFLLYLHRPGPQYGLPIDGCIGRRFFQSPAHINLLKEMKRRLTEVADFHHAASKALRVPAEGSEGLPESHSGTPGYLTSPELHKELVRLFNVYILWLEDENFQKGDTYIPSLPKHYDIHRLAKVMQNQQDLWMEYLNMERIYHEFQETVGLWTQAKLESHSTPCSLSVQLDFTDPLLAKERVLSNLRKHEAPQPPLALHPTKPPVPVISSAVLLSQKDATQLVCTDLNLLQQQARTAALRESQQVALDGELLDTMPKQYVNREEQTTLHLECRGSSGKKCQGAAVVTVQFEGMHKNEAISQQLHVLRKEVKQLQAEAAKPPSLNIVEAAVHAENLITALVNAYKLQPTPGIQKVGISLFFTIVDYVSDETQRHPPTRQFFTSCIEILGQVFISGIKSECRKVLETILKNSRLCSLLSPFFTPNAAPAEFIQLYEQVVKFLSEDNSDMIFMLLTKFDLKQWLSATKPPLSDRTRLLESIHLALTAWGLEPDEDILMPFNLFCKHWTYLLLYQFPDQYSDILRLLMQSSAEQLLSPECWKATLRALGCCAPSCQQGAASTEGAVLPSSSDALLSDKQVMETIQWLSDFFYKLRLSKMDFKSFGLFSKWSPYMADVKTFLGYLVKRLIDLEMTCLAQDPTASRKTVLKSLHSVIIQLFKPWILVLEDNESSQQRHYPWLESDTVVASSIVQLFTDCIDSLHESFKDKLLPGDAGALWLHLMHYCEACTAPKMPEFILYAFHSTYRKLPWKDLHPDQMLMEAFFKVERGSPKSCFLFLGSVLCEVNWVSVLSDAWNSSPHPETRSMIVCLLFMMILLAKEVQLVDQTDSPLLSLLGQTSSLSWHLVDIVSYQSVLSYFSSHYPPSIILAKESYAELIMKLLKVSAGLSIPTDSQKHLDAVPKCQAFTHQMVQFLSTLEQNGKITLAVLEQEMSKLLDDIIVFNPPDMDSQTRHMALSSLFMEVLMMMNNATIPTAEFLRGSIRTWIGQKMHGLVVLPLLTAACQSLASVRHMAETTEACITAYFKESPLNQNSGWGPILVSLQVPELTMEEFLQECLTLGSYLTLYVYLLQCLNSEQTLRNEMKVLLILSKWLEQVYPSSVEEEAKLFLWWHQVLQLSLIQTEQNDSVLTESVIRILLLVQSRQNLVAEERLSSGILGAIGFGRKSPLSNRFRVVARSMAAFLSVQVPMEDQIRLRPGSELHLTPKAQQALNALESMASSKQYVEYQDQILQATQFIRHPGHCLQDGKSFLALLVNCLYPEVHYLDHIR
Sequence of BUB1 (O43683 whole entry): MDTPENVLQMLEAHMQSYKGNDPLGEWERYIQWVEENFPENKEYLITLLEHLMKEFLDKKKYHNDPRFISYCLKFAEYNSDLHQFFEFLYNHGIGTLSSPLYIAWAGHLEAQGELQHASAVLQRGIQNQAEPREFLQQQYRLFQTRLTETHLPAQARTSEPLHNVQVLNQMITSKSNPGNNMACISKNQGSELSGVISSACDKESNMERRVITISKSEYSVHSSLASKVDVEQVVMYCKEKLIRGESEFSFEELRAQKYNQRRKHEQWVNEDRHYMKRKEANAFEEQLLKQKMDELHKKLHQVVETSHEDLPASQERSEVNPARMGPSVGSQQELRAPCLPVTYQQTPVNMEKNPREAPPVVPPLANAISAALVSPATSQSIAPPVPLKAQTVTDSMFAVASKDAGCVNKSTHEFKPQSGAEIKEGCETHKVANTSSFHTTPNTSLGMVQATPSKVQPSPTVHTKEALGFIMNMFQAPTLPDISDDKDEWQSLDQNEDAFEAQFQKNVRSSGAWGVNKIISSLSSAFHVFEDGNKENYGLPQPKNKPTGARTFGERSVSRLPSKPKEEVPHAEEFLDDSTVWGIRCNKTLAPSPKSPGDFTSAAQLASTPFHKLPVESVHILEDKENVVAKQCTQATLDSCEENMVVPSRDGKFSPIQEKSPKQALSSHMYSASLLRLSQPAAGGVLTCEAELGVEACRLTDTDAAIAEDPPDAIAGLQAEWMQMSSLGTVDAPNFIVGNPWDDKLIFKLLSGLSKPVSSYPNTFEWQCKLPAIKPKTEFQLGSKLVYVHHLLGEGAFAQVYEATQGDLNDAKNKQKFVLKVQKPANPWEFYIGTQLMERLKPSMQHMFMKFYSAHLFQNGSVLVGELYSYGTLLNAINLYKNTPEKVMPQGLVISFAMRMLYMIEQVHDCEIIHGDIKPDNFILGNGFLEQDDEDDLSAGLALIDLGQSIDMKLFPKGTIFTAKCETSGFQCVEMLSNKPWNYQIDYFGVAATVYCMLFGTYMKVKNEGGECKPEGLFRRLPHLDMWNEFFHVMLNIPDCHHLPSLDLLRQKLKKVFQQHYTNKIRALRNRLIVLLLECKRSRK

B1: LZTR1 R810W-FLAG (other, human, UniProt Q8N653 1-840, looked up)
chain: MAGPGSTGGQIGAAALAGGARSKVAPSVDFDHSCSDSVEYLTLNFGPFETVHRWRRLPPCDEFVGARRSKHTVVAYKDAIYVFGGDNGKTMLNDLLRFDVKDCSWCRAFTTGTPPAPRYHHSAVVYGSSMFVFGGYTGDIYSNSNLKNKNDLFEYKFATGQWTEWKIEGRLPVARSAHGATVYSDKLWIFAGYDGNARLNDMWTIGLQDRELTCWEEVAQSGEIPPSCCNFPVAVCRDKMFVFSGQSGAKITNNLFQFEFKDKTWTRIPTEHLLRGSPPPPQRRYGHTMVAFDRHLYVFGGAADNTLPNELHCYDVDFQTWEVVQPSSDSEVGGAEVPERACASEEVPTLTYEERVGFKKSRDVFGLDFGTTSAKQPTQPASELPSGRLFHAAAVISDAMYIFGGTVDNNIRSGEMYRFQFSCYPKCTLHEDYGRLWESRQFCDVEFVLGEKEECVQGHVAIVTARSRWLRRKITQARERLAQKLEQEAAPVPREAPGVAAGGARPPLLHVAIREAEARPFEVLMQFLYTDKIKYPRKGHVEDVLLIMDVYKLALSFQLCRLEQLCRQYIEASVDLQNVLVVCESAARLQLSQLKEHCLNFVVKESHFNQVIMMKEFERLSSPLIVEIVRRKQQPPPRTPLDQPVDIGTSLIQDMKAYLEGAGAEFCDITLLLDGHPRPAHKAILAARSSYFEAMFRSFMPEDGQVNISIGEMVPSRQAFESMLRYIYYGEVNMPPEDSLYLFAAPYYYGFYNNRLQAYCKQNLEMNVTVQNVLQILEAADKTQALDMKRHCLHIIVHQFTKVSKLPTLWSLSQQLLLDIIDSLASHISDKQCAELGADI
notes: Stably expressed in U87 cells by lentivirus; also called LZTR1-FLAG-R810W; LZTR1 RW; not shown: FLAG tag
binds: RTTN | EPG5 | HERC2 | BUB1 | ASXL1 | ANKRD52 | CDC42BPB | SPG11
